According to article PMC3769225, “Modulation of Global Low-Frequency Motions Underlies Allosteric Regulation: Demonstration in CRP/FNR Family Transcription Factors” (PLoS Biology, 2013):

B1: Catabolite Activator Protein (CAP) of Escherichia coli, wild-type (natural protein, UniProt P0ACJ8 1-210, looked up)
chain: MVLGKPQTDPTLEWFLSHCHIHKYPSKSTLIHQGEKAETLYYIVKGSVAVLIKDEEGKEMILSYLNQGDFIGELGLFEEGQERSAWVRAKTACEVAEISYKKFRQLIQVNPDILMRLSAQMARRLQVTSEKVGNLAFLDVTGRIAQTLLNLAKQPDAMTHPDGMQIKITRQEIGQIVGCSRETVGRILKMLEDQNLISAHGKTIVVYGTR
notes: also called CAP wild-type
B2: CAP V132A (natural protein, Escherichia coli, UniProt P0ACJ8 1-210, looked up)
chain: MVLGKPQTDPTLEWFLSHCHIHKYPSKSTLIHQGEKAETLYYIVKGSVAVLIKDEEGKEMILSYLNQGDFIGELGLFEEGQERSAWVRAKTACEVAEISYKKFRQLIQVNPDILMRLSAQMARRLQVTSEKAGNLAFLDVTGRIAQTLLNLAKQPDAMTHPDGMQIKITRQEIGQIVGCSRETVGRILKMLEDQNLISAHGKTIVVYGTR
B3: CAP V132L (natural protein, Escherichia coli, UniProt P0ACJ8 1-210, looked up)
chain: MVLGKPQTDPTLEWFLSHCHIHKYPSKSTLIHQGEKAETLYYIVKGSVAVLIKDEEGKEMILSYLNQGDFIGELGLFEEGQERSAWVRAKTACEVAEISYKKFRQLIQVNPDILMRLSAQMARRLQVTSEKLGNLAFLDVTGRIAQTLLNLAKQPDAMTHPDGMQIKITRQEIGQIVGCSRETVGRILKMLEDQNLISAHGKTIVVYGTR
B4: CAP V140L (natural protein, Escherichia coli, UniProt P0ACJ8 1-210, looked up)
chain: MVLGKPQTDPTLEWFLSHCHIHKYPSKSTLIHQGEKAETLYYIVKGSVAVLIKDEEGKEMILSYLNQGDFIGELGLFEEGQERSAWVRAKTACEVAEISYKKFRQLIQVNPDILMRLSAQMARRLQVTSEKVGNLAFLDLTGRIAQTLLNLAKQPDAMTHPDGMQIKITRQEIGQIVGCSRETVGRILKMLEDQNLISAHGKTIVVYGTR
B5: CAP H160L (natural protein, Escherichia coli, UniProt P0ACJ8 1-210, looked up)
chain: MVLGKPQTDPTLEWFLSHCHIHKYPSKSTLIHQGEKAETLYYIVKGSVAVLIKDEEGKEMILSYLNQGDFIGELGLFEEGQERSAWVRAKTACEVAEISYKKFRQLIQVNPDILMRLSAQMARRLQVTSEKVGNLAFLDVTGRIAQTLLNLAKQPDAMTLPDGMQIKITRQEIGQIVGCSRETVGRILKMLEDQNLISAHGKTIVVYGTR
B6: CAP V140A (natural protein, Escherichia coli, UniProt P0ACJ8 1-210, looked up)
chain: MVLGKPQTDPTLEWFLSHCHIHKYPSKSTLIHQGEKAETLYYIVKGSVAVLIKDEEGKEMILSYLNQGDFIGELGLFEEGQERSAWVRAKTACEVAEISYKKFRQLIQVNPDILMRLSAQMARRLQVTSEKVGNLAFLDATGRIAQTLLNLAKQPDAMTHPDGMQIKITRQEIGQIVGCSRETVGRILKMLEDQNLISAHGKTIVVYGTR

Target: the molecule itself
Assay: crystal structure; homodimer in crystals grown at pH 6.5 with 7-10% PEG 3350, 15-20% 2-methyl-2,4-pentanediol and 2 mM cAMP; cAMP-bound protein

Binding result, binds:
B1, B2, B3, B4, B5, B6
